Experimental data reported in patent US20260167731A1 (DOMAIN THERAPEUTICS, published 2026).
Values joined by “and” are separate entries in the source; they are usually repeats but may differ in a detail not shown here. Equal values may be shown once.

B1: anti-CCR8 mAb 2-3 (antibody, V domains shown)
VH: EVQLQQSGPELLKPGTSVKISCTTSGYTFSDYTLHWVKQSHGKSLEWIGGITPKNGDTRYDPRFKDKATLTIDKSSSAAYMELRSLTSEDSAVYYCARVARFYGVSPYAMDYWGQGASVTVSS
VL: DVVMTQTPLSLPVSLGDQASISCRCTQSLLHSNGDTYLHWYLQKPGQSPKLLIYKVSNRFSGVPDRFSGSGSGTDFTLEITRVEAEDLGVYFCSQTTHVPYTFGGGTKLEIK
B2: Ref #1 (TPP-21360 of WO 2021/260210) (antibody, human IgG1, V domains shown)
VH: EVQLLESGGGLVQPGGSLRLSCAASGFTFSSYGMHWVRQAPGKGLEWVSAINWNGGSTGYADSVKGRFTISRDNSKNTLYLQMNSLRAEDTAVYYCARGHHSGYDGRFFDYWGQGTLVTVSS
VL: QSVLTQPPSVSGAPGQRVTISCTGSSSNIGAGYNVHWYQQLPGTAPKLLIYTNNRRPSGVPDRFSGSKSGTSASLAISGLRSEDEADYYCAAWDASLSGWVFGGGTKLTVL
notes: Benchmark; variable regions cloned into vectors encoding heavy and light chains of human IgG1, produced in CHO
B3: Ref #4 (137-H3L2 (LM-108) of WO 2022/078277) (antibody, human IgG1, V domains shown)
VH: EVQLVESGGGLVQPGGSLKLSCAASGFTFNTYAMNWVRQASGKGLEWVARIRSKANNYATYYADSVKDRFTISRDDSKNTLYLQMNNLKTEDTAVYYCVRDRSRGEDYAMDYWGQGTLVTVSS
VL: DIVMTQSPLSLPVTPGEPASISCRSSKSLLHSNANTYLYWFLQKPGQSPQLLIYRMSNLASGVPDRFSGSGSGTAFTLKISRVEAEDVGVYYCMQHLEYPFTFGQGTKLEIK
B4: anti-CCR8 mAb 2-8 (antibody, V domains shown)
VH: QVQLKESGPGLVAPSQSLSITCTVSGFSLTDYGVSWIRQPPGKGPEWLGVIWGGGNTYYNSVLKSRLSISNDNSKSQVFLRMNSLQTADTAIYYCARPRRDYYALDYWGQGTSVTVAS
VL: DVVMTQTPLSLPVSLGDQASISCRSSQSLVYTNGNTFLHWYLQKPGQSPKLLIYKVSNRFSGVPDRFSGSGSGTDFTLKISRVEAEDLGVYFCSQSTHVPPTFGGGTKLEIK
B5: Ref #3 (Anti-CCR8-1 of US 2021/0238292 A1) (antibody, human IgG1, V domains shown)
VH: QVQLVQSGAEVKKPGASVKVSCKASGYTFTSYYMHWVRQAPGQGLEWMGIINPSGGSTSYAQKFQGRVTMTRDTSTSTVYMELSSLRSEDTAVYYCARAVRNRFRFDYWGQGTLVTVSS
VL: QSALTQPASVSGSPGQSITISCTGTSSDVGSYNLVSWYQQHPGKAPKLMIYEVSKRPSGVSNRFSGSKSGNTASLTISGLQAEDEADYYCSSYAGSSTFVVFGGGTKLTVL

What was measured:
[1] = biological target: T1, human CCR8 (human, UniProt P51685 1-355); assay: cell-based or functional assay
[2] = biological target: T2, pwt1, unmodified CCR8 related peptide (human, none (non-sulfated Y15, Y16, Y17)); assay: ELISA on coated CCR8 peptide (500 ng/mL), OD [cont.]
T2 construct: First 34 amino acids of human CCR8, synthetic; also called unmodified peptide
Method: (§1) The specific binding properties of antibodies were evaluated by ELISA with coated CCR8 related peptides (500 ng/mL) in carbonate/bicarbonate buffer. Different peptides were used as described in Table 1 (see Example 1). Each anti-CCR8 mAb was tested at 1 μg/mL then diluted at 1/10. After an incubation at room temperature during 90 min, unbound mAbs were removed by washings. […] After washings, 3,3′,5,5′-tetramethylbenzidine (TMB) (Interchim, Montlugon, France) was added for 15 min. Then the optical density (OD) was determined by using a multiplate reader (Tecan, Lyon, France) and correlated with mAb reactivity on the panel of coated peptides.

[3] = biological target: pm5, modified CCR8 related peptide (human, sulfated tyrosines at Y15 and Y17); assay: as above
Method: as §1

[4] = biological target: pm3, modified CCR8 related peptide (human, sulfated tyrosine at Y17); assay: as above
Method: as §1

[5] = biological target: pm8, modified CCR8 related peptide (human, sulfated tyrosines at Y15, Y16 and Y17); assay: as above
Method: as §1

[6] = biological target: pm6, modified CCR8 related peptide (human, sulfated tyrosines at Y16 and Y17); assay: as above
Method: as §1

[7] = biological target: pm4, modified CCR8 related peptide (human, sulfated tyrosines at Y15 and Y16); assay: as above
Method: as §1

[8] = biological target: pm2, modified CCR8 related peptide (human, sulfated tyrosine at Y16); assay: as above
Method: as §1

[9] = biological target: pm1, modified CCR8 related peptide (human, sulfated tyrosine at Y15); assay: as above
Method: as §1

[10] = biological target: T1, human CCR8; assay: flow cytometry, hCCR8 transfected CHOK1 cells
Method: The same staining protocol was applied on human CCR8 transfected CHO cell line versus wild type CHO cell line, cutaneous T cell lymphoma HUT78 cell line and human activated T cell model.
Briefly, 1·10⁵ cells per well in a 96 well plate were incubated with a dilution of unconjugated anti-CCR8 mAb at 10 μg/mL then diluted at 1/3.33, 4 dilution points (during 30 min at 4° C.). In human activated T cells model, prior to mAb incubation, cells were first incubated with 200 nM of hCCL1 (R&D Systems, Minneapolis, MN, USA) or buffer PBS (Invitrogen by Thermofisher Scientific, Illkirch-Graffenstaden, France) supplemented by 2% Fetal Bovine Serum (Invitrogen by Thermofisher Scientific, Illkirch-Graffenstaden, France) and 2 mM EDTA (Invitrogen by Thermofisher Scientific, Illkirch-Graffenstaden, France) during 1 hour at 4° C. To determine EC50 value, 8 concentrations of anti-CCR8 mAb were tested. Unbound antibodies were washed away with PBS (Invitrogen by Thermofisher Scientific, Illkirch-Graffenstaden, France) supplemented by 2% Fetal Bovine Serum (Invitrogen by Thermofisher Scientific, Illkirch-Graffenstaden, France) and 2 mM EDTA (Invitrogen by Thermofisher Scientific, Illkirch-Graffenstaden, France). Subsequently, cells are centrifuged (5 min at 400 g) and bound antibody is detected with F(ab′)₂-Goat anti-Mouse IgG (H+L) Cross-Adsorbed Secondary Antibody, Alexa Fluor 488 (dilution 1/500) (Invitrogen by Thermofisher Scientific, Illkirch-Graffenstaden, France) or with F(ab′)₂-Goat anti-Human IgG Fc Secondary Antibody, PE (Invitrogen by Thermofisher Scientific, Illkirch-Graffenstaden, France) (dilution 1/1000) at 4° C. for 30 min. Detection reagent is washed away and cells are centrifuged (5 min at 400 g) and resuspended in 30 μL PBS. Bound detection antibody is quantified on a MacsQuant16 (Miltenyi, Gladbach, Germany) (B1 or B2 channel, 5000 events per acquisition). During the experiment, the respective isotype mAb controls (mouse IgG1, mouse IgG2a, mouse IgG2b, mouse IgG3 or human IgG1) (Biolegend, Amsterdam, The Netherlands) are included to exclude any unspecific binding events.

[11] = biological target: T1, human CCR8; assay: cell-based or functional assay; remark: listed apart in the source
[12] = biological target: T1, human CCR8; assay: flow cytometry, inhibition of hCCL1-AF647 binding to hCCR8 CHO cells
Method: The hCCR8 transfected CHO cell line was dispatched at a density of 1·10⁵ per well in a 96-well plate. Cells were incubated for 30 min at 4° C. with or without anti-CCR8 mAb tested at 10 μg/mL then diluted at 1/3. Unbound antibodies were washed away with PBS (Gibco, Villebon-sur-Yvette, France) supplemented by 2% Fetal Bovine Serum (Invitrogen by Thermofisher Scientific, Illkirch-Graffenstaden, France) and 2 mM EDTA. […] After washing unbound ligands, CCL1 bound detection is quantified on a MacsQuant16 (Miltenyi, Gladbach, Germany) (R1 channel, 5 000 events per acquisition).
For IC₅₀ determination, a concentration response curve is performed using 8 concentrations of mAb. Curves are fitted and IC₅₀ of CCL1 binding blocking activity is calculated using the sigmoidal dose-response (variable slope) model on GraphPad Prism 9 (GraphPad Software, San Diego, CA, USA).

[13] = biological target: T1, human CCR8; assay: cell-based or functional assay; remark: listed apart in the source
[14] = biological target: T3, hCCR8 SNAP-tag (human, UniProt P51685 1-355, SNAP-tag labelled with Lumi4-Terbium); assay: HTRF Tag-lite, inhibition of hCCL1-AF647 binding to SNAP-tag hCCR8 on HEK-293
T3 construct: also called human CCR8 engineered with a SNAP-tag at the N-terminus; not shown: SNAP-tag at the N-terminus
Method: The inhibition of CCL1 binding to hCCR8 was evaluated with the Tag-Lite® technology from Cisbio (Revvity). Human CCR8 is engineered with a SNAP-tag at the N-terminus of the GPCR. hCCR8 SNAP-tag is transiently transfected on HEK-293 cell line using FuGene® (Promega, Madison, WI, USA). 48 hours after transfection, cells are labeled with the substrate Lumi4-Terbium® (Cisbio, Codolet, France) which covalently reacts with the SNAP-tag, for 1 h at 37° C. […] The Kd is previously obtained in a saturation binding assay on the same cells. […] The plate is next incubated at 21° C. for 2 h. Detection of HTRF signal is performed on the multiplate reader EnVision (PerkinElmer, Waltham, MA, USA). The HTRF (665/620) ratio is calculated by EnVision software, the data exported are considered as the total binding. The specific binding is calculated then by subtracting the non-specific signal from the total binding. The Ki and IC₅₀are calculated using the “One site—Fit Ki” and “One site—FitlogIC50” from GraphPad Prism 9 (Graphpad Software, San Diego, CA, USA), respectively.

[15] = biological target: T3, hCCR8 SNAP-tag; assay: cell-based or functional assay

Chain of pm6, modified CCR8 related peptide (human, sulfated tyrosines at Y16 and Y17) (peptide, as listed by the source): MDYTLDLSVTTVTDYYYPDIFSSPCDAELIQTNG
Chain of pm1, modified CCR8 related peptide (human, sulfated tyrosine at Y15) (peptide, as listed by the source): as above
Chain of pm3, modified CCR8 related peptide (human, sulfated tyrosine at Y17) (peptide, as listed by the source): as above
Chain of pm8, modified CCR8 related peptide (human, sulfated tyrosines at Y15, Y16 and Y17) (peptide, as listed by the source): as above
Chain of pm4, modified CCR8 related peptide (human, sulfated tyrosines at Y15 and Y16) (peptide, as listed by the source): as above
Chain of pm5, modified CCR8 related peptide (human, sulfated tyrosines at Y15 and Y17) (peptide, as listed by the source): as above
T2 sequence (peptide, as listed by the source): as above
Chain of pm2, modified CCR8 related peptide (human, sulfated tyrosine at Y16) (peptide, as listed by the source): as above

| Binder | binding result [2] | binding result [3] | binding result [4] | binding result [5] | binding result [6] | binding result [7] | binding result [8] | binding result [9] | % positive cells [10] | MFI fold change to isotype ctrl [10] | IC50, CCL1 induced hCCR8 Gi2 signaling (BRET) at pH 6.5 [11] | IC50, CCL1 induced hCCR8 Gi2 signaling (BRET) at pH 7.4 [11] | IC50 [12] | IC50, CCL1 induced hCCR8 Gi2 signaling (BRET, HEK-293) [13] | % of internalization at 1 µg/ml (CCL1 at 300 nM = 100%), HTRF [15] | % of internalization at 10 µg/ml (CCL1 at 300 nM = 100%), HTRF [15] | other results |
| --- | --- | --- | --- | --- | --- | --- | --- | --- | --- | --- | --- | --- | --- | --- | --- | --- | --- |
| B1 | binds | binds | binds | binds | binds | binds | binds | binds | 81.1% | 10.7 fold | 0.044 µg/ml and 0.292 nM | 0.061 µg/ml and 0.405 nM | 1.3 µg/mL and 8.71 nM | 0.049 µg/mL and 0.328 nM | – | – | hCCL1 (100 nM) residual response in %, Protocol #2, mAb 0.08 µg/mL (0.53 nM) [1]: 79%; hCCL1 (100 nM) residual response in %, Protocol #2, mAb 0.4 µg/mL (2.67 nM) [1]: 38%; hCCL1 (100 nM) residual response in %, Protocol #2, mAb 10 µg/mL (66.7 nM) [1]: 17%; hCCL1 (100 nM) residual response in %, Protocol #3, mAb 0.05 µg/mL (0.33 nM) [1]: 102%; hCCL1 (100 nM) residual response in %, Protocol #3, mAb 0.5 µg/mL (3.33 nM) [1]: 64%; hCCL1 (100 nM) residual response in %, Protocol #3, mAb 5 µg/mL (33.3 nM) [1]: 47% |
| B2 | – | – | – | – | – | – | – | – | 75.1% | – | – | – | 0.65 mg/L | 0.101 µg/mL and 0.675 nM | 126% | 111% | IC50 [14]: 0.45 mg/L; Ki [14]: 0.23 mg/L |
| B3 | – | – | – | – | – | – | – | – | – | – | – | – | – | – | 95% | 103% | – |
| B4 | binds | binds | binds | binds | binds | binds | binds | binds | 78.9% | 6.36 fold | 0.578 µg/ml and 3.85 nM | 0.812 µg/ml and 5.41 nM | 2.22 µg/mL and 14.8 nM | 0.712 µg/mL and 4.75 nM | – | – | – |
| B5 | – | – | – | – | – | – | – | – | – | – | – | – | – | – | 100% | 90% | – |
